The results in this text go back to IntAct's records for PubMed 26258305.

Targets include tif6a_arath TIFY6A (UniProt Q58G47); tif6b_arath TIFY6B (UniProt Q9LVI4); ti11b_arath TIFY11B (UniProt Q9C9E3); ti11a_arath TIFY11A (UniProt Q9LDU5); tif7_arath TIFY7 (UniProt Q8W4J8); ti10b_arath TIFY10B (UniProt Q9S7M2); tif5a_arath TIFY5A (UniProt Q8LBM2); tif3b_arath TIFY3B (UniProt Q9C5K8); tif3a_arath TIFY3A (UniProt Q9M246); ti10a_arath TIFY10A (UniProt Q9LMA8); tif9_arath TIFY9 (UniProt Q93ZM9).

Sequence of Transcription factor MYC3 (Arabidopsis thaliana (Mouse-ear cress)), Q9FIP9 F151A;L152A (Q9FIP9 whole entry F151A/L152A): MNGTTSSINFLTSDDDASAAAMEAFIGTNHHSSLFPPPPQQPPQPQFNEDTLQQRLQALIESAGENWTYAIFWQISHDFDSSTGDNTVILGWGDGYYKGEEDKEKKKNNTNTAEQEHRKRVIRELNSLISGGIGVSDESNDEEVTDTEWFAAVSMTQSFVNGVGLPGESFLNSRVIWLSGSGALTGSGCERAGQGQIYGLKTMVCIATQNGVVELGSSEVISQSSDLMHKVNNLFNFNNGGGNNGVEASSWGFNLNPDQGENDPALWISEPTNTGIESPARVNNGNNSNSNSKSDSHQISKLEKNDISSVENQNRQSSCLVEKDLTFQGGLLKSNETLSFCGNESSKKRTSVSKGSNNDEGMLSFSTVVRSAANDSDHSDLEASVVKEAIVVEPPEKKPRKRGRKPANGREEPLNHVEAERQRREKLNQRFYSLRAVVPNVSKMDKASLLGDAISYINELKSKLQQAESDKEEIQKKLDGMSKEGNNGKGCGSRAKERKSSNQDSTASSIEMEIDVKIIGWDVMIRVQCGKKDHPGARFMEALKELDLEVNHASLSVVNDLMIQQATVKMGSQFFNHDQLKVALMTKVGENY
Sequence of Transcription factor MYC3 (Arabidopsis thaliana (Mouse-ear cress)), Q9FIP9 F151A;L152A;M155A (Q9FIP9 whole entry F151A/L152A/M155A): as the sequence (Q9FIP9 whole entry F151A/L152A) above, with M155A counted along it
Sequence of ti11b_arath TIFY11B (Q9C9E3 whole entry): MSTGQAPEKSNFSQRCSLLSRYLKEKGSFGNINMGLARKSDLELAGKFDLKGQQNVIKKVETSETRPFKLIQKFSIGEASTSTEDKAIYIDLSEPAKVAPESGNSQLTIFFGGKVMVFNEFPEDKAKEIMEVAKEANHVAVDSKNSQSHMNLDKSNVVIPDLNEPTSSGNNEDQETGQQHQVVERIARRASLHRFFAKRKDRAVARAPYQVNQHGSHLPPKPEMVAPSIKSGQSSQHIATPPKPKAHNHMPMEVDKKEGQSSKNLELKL
Sequence of tif6b_arath TIFY6B (Q9LVI4 whole entry): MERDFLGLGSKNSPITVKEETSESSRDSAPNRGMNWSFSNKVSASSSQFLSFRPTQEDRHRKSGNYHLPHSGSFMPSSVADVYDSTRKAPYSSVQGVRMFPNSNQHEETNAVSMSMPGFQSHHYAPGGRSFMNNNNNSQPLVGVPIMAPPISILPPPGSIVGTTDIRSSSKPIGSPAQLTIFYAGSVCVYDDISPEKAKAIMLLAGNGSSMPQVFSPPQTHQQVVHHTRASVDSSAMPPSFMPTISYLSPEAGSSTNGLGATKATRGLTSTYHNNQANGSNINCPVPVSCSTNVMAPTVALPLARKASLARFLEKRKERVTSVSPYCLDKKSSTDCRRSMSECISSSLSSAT
Sequence of Transcription factor MYC3 (Arabidopsis thaliana (Mouse-ear cress)), Q9FIP9 F151A (Q9FIP9 whole entry F151A): as the sequence (Q9FIP9 whole entry F151A/L152A) above, with A152L counted along it
Sequence of tif9_arath TIFY9 (Q93ZM9 whole entry): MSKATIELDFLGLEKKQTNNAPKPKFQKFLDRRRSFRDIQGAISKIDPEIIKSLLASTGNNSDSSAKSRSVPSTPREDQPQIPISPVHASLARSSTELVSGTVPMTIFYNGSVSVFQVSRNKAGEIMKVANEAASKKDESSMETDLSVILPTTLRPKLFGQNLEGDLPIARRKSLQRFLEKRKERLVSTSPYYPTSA
Sequence of ti11a_arath TIFY11A (Q9LDU5 whole entry): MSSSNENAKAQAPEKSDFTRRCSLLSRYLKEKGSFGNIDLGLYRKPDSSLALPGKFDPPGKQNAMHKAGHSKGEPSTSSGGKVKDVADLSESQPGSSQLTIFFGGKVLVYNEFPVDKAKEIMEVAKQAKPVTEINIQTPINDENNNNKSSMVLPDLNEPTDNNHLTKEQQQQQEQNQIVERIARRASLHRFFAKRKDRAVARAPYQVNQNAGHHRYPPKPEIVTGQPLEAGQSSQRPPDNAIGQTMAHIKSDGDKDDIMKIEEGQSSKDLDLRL
Sequence of Transcription factor MYC3 (Arabidopsis thaliana (Mouse-ear cress)), Q9FIP9 L152A (Q9FIP9 whole entry L152A): as the sequence (Q9FIP9 whole entry F151A/L152A) above, with A151F counted along it
Sequence of tif3b_arath TIFY3B (Q9C5K8 whole entry): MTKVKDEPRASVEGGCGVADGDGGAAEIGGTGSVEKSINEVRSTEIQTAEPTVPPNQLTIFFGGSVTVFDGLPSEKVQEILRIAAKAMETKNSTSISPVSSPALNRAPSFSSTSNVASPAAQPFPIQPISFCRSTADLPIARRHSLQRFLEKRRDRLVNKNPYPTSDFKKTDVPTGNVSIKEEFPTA
Sequence of ti10b_arath TIFY10B (Q9S7M2 whole entry): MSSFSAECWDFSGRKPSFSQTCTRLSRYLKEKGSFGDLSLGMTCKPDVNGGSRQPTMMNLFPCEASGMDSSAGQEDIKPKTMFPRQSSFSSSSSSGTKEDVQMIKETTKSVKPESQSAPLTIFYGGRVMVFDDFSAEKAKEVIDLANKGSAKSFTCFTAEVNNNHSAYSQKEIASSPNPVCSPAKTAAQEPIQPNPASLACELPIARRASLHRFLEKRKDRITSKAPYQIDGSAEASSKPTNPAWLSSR
Sequence of Transcription factor MYC3 (Arabidopsis thaliana (Mouse-ear cress)), Q9FIP9 F151A;M155A (Q9FIP9 whole entry F151A/M155A): as the sequence (Q9FIP9 whole entry F151A/L152A) above, with A152L, M155A counted along it
Sequence of tif7_arath TIFY7 (Q8W4J8 whole entry): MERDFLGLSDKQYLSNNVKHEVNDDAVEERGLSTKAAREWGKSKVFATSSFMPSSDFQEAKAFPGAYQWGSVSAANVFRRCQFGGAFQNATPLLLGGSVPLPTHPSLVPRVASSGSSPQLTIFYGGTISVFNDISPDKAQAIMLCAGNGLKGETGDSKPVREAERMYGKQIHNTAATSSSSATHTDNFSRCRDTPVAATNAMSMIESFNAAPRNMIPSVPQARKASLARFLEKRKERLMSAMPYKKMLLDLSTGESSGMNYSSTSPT
Sequence of tif5a_arath TIFY5A (Q8LBM2 whole entry): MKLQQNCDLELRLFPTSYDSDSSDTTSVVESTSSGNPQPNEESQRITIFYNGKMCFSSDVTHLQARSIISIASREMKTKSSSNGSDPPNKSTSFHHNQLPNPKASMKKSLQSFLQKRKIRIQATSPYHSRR

With “Transcription factor MYC3 (Arabidopsis thaliana (Mouse-ear cress)), Q9FIP9 D94A”, the “effect of a mutation on the interaction” value with tif6a_arath TIFY6A is “disrupting interaction strength”.

Regarding “Transcription factor MYC3 (Arabidopsis thaliana (Mouse-ear cress)), Q9FIP9 D94A;Y97A”, the “effect of a mutation on the interaction” value in the test with tif6b_arath TIFY6B, in the test with ti11b_arath TIFY11B, with tif6a_arath TIFY6A, in the test with ti11a_arath TIFY11A and with tif7_arath TIFY7 was “decreasing interaction strength” throughout.

For “Transcription factor MYC3 (Arabidopsis thaliana (Mouse-ear cress)), Q9FIP9 D94N”, the “effect of a mutation on the interaction” value with tif6b_arath TIFY6B, in the test with tif6a_arath TIFY6A and in the test with tif7_arath TIFY7 was “disrupting interaction strength” throughout.

As to “Transcription factor MYC3 (Arabidopsis thaliana (Mouse-ear cress)), Q9FIP9 F151A”, the “effect of a mutation on the interaction” value with ti10b_arath TIFY10B is “decreasing interaction strength”; in the test with tif5a_arath TIFY5A, “decreasing interaction strength”; with tif6b_arath TIFY6B it was “disrupting interaction strength”; with ti11b_arath TIFY11B, “decreasing interaction strength”; in the test with tif3b_arath TIFY3B, “disrupting interaction strength”; with tif6a_arath TIFY6A, “disrupting interaction strength”. The “effect of a mutation on the interaction” value with tif3a_arath TIFY3A is “decreasing interaction strength”; with ti11a_arath TIFY11A it was “disrupting interaction strength”; in the test with tif7_arath TIFY7, “decreasing interaction strength”; with ti10a_arath TIFY10A, “decreasing interaction strength”; in the test with tif9_arath TIFY9, “decreasing interaction strength”.

As for “Transcription factor MYC3 (Arabidopsis thaliana (Mouse-ear cress)), Q9FIP9 F151A;L152A”, the “effect of a mutation on the interaction” value with ti10b_arath TIFY10B, with tif5a_arath TIFY5A, in the test with tif6b_arath TIFY6B, with ti11b_arath TIFY11B, in the test with tif3b_arath TIFY3B and with tif6a_arath TIFY6A was “disrupting interaction strength” each time. Further, the “effect of a mutation on the interaction” value with tif3a_arath TIFY3A, in the test with ti11a_arath TIFY11A, with tif7_arath TIFY7, with ti10a_arath TIFY10A and in the test with tif9_arath TIFY9 was “disrupting interaction strength” throughout.

On to “Transcription factor MYC3 (Arabidopsis thaliana (Mouse-ear cress)), Q9FIP9 F151A;L152A;M155A”, for which the “effect of a mutation on the interaction” value with ti10b_arath TIFY10B, with tif5a_arath TIFY5A, with tif6b_arath TIFY6B, with ti11b_arath TIFY11B, with tif3b_arath TIFY3B and with tif6a_arath TIFY6A was “disrupting interaction strength” throughout. In addition, the “effect of a mutation on the interaction” value in the test with tif3a_arath TIFY3A, with ti11a_arath TIFY11A, with tif7_arath TIFY7, with ti10a_arath TIFY10A and with tif9_arath TIFY9 was “disrupting interaction strength” each time.

With “Transcription factor MYC3 (Arabidopsis thaliana (Mouse-ear cress)), Q9FIP9 F151A;M155A”, the “effect of a mutation on the interaction” value with ti10b_arath TIFY10B is “disrupting interaction strength”; with tif5a_arath TIFY5A, “disrupting interaction strength”; in the test with tif6b_arath TIFY6B, “disrupting interaction strength”; with ti11b_arath TIFY11B it was “decreasing interaction strength”; with tif3b_arath TIFY3B, “disrupting interaction strength”; in the test with tif6a_arath TIFY6A, “disrupting interaction strength”. Also, the “effect of a mutation on the interaction” value was “disrupting interaction strength” in the test with tif3a_arath TIFY3A; “disrupting interaction strength” with ti11a_arath TIFY11A; “disrupting interaction strength” with tif7_arath TIFY7; “decreasing interaction strength” with ti10a_arath TIFY10A; “decreasing interaction strength” with tif9_arath TIFY9.

On to “Transcription factor MYC3 (Arabidopsis thaliana (Mouse-ear cress)), Q9FIP9 L152A”, for which the “effect of a mutation on the interaction” value with ti10b_arath TIFY10B is “decreasing interaction strength”; with tif6b_arath TIFY6B, “disrupting interaction strength”; in the test with ti11b_arath TIFY11B, “decreasing interaction strength”; in the test with tif3b_arath TIFY3B, “disrupting interaction strength”; with tif6a_arath TIFY6A it was “disrupting interaction strength”; in the test with tif3a_arath TIFY3A it was “decreasing interaction strength”. In addition, the “effect of a mutation on the interaction” value with ti11a_arath TIFY11A is recorded as “disrupting interaction strength”; in the test with tif7_arath TIFY7 it was “disrupting interaction strength”; with ti10a_arath TIFY10A, “decreasing interaction strength”; in the test with tif9_arath TIFY9 it was “decreasing interaction strength”.

For the substance “Transcription factor MYC3 (Arabidopsis thaliana (Mouse-ear cress)), Q9FIP9 L152A;M155A”, the “effect of a mutation on the interaction” value in the test with ti10b_arath TIFY10B, in the test with tif5a_arath TIFY5A, with tif6b_arath TIFY6B, with ti11b_arath TIFY11B, in the test with tif3b_arath TIFY3B and with tif6a_arath TIFY6A was “disrupting interaction strength” each time. For the same substance, the “effect of a mutation on the interaction” value in the test with tif3a_arath TIFY3A, in the test with ti11a_arath TIFY11A, in the test with tif7_arath TIFY7, with ti10a_arath TIFY10A and with tif9_arath TIFY9 was “disrupting interaction strength” each time.

“Transcription factor MYC3 (Arabidopsis thaliana (Mouse-ear cress)), Q9FIP9 M155A”: the “effect of a mutation on the interaction” value is on record as “disrupting interaction strength” in the test with tif6b_arath TIFY6B; “decreasing interaction strength” with ti11b_arath TIFY11B; “disrupting interaction strength” with tif3b_arath TIFY3B; “disrupting interaction strength” with tif6a_arath TIFY6A; “decreasing interaction strength” in the test with ti11a_arath TIFY11A; “disrupting interaction strength” with tif7_arath TIFY7.

For “Transcription factor MYC3 (Arabidopsis thaliana (Mouse-ear cress)), Q9FIP9 W92A”, in the test with tif6a_arath TIFY6A, the “effect of a mutation on the interaction” value was “disrupting interaction strength”.

Turning to “Transcription factor MYC3 (Arabidopsis thaliana (Mouse-ear cress)), Q9FIP9 W92A;D94A”, the “effect of a mutation on the interaction” value with tif6a_arath TIFY6A is “disrupting interaction strength”.

As to “Transcription factor MYC3 (Arabidopsis thaliana (Mouse-ear cress)), Q9FIP9 W92A;D94A;Y97A”, the “effect of a mutation on the interaction” value in the test with ti10b_arath TIFY10B, in the test with tif5a_arath TIFY5A, with tif6b_arath TIFY6B, with ti11b_arath TIFY11B, with tif3b_arath TIFY3B and in the test with tif6a_arath TIFY6A was “disrupting interaction strength” throughout. For the same substance, the “effect of a mutation on the interaction” value in the test with tif3a_arath TIFY3A, in the test with ti11a_arath TIFY11A, with tif7_arath TIFY7, with ti10a_arath TIFY10A and in the test with tif9_arath TIFY9 was “disrupting interaction strength” in each case.

On to “Transcription factor MYC3 (Arabidopsis thaliana (Mouse-ear cress)), Q9FIP9 Y97A”, for which the “effect of a mutation on the interaction” value in the test with tif6a_arath TIFY6A is “disrupting interaction strength”.
